{"source": "IntAct's records for PubMed 29892012", "parents": {"B1": {"name": "TBC1 domain family member 22B (Homo sapiens), Q9NU19 (parent)", "chain": "MAAENSKQFWKRSAKLPGSIQPVYGAQHPPLDPRLTKNFIKERSKVNTVPLKNKKASSFHEFARNTSDAWDIGDDEEEDFSSPSFQTLNSKVALATAAQVLENHSKLRVKPERSQSTTSDVPANYKVIKSSSDAQLSRNSSDTCLRNPLHKQQSLPLRPIIPLVARISDQNASGAPPMTVREKTRLEKFRQLLSSQNTDLDELRKCSWPGVPREVRPITWRLLSGYLPANTERRKLTLQRKREEYFGFIEQYYDSRNEEHHQDTYRQIHIDIPRTNPLIPLFQQPLVQEIFERILFIWAIRHPASGYVQGINDLVTPFFVVFLSEYVEEDVENFDVTNLSQDMLRSIEADSFWCMSKLLDGIQDNYTFAQPGIQKKVKALEELVSRIDEQVHNHFRRYEVEYLQFAFRWMNNLLMRELPLRCTIRLWDTYQSEPEGFSHFHLYVCAAFLIKWRKEILDEEDFQGLLMLLQNLPTIHWGNEEIGLLLAEAYRLKYMFADAPNHYRR", "partner": "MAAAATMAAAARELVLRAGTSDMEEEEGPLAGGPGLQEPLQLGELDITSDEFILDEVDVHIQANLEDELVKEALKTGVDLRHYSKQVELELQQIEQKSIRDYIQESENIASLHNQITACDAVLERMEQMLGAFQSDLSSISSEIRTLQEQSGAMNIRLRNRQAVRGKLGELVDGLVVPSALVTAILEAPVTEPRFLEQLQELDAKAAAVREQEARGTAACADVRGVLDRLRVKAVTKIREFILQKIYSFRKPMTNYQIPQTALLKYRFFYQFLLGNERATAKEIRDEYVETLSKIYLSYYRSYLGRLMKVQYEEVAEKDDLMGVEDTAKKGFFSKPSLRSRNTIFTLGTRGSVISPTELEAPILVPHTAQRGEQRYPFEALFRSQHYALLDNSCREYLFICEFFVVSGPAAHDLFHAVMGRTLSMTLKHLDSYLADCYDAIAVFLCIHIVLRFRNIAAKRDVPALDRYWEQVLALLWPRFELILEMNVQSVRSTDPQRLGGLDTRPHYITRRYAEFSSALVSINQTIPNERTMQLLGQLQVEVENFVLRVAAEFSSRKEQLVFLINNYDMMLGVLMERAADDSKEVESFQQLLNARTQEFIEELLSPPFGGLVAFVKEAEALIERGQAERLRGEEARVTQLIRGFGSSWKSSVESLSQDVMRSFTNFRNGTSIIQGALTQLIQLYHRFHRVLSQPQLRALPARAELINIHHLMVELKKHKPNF"}, "B2": {"name": "Cell division cycle-associated 7-like protein (Homo sapiens), Q96GN5 (parent)", "chain": "MELATRYQIPKEVADIFNAPSDDEEFVGFRDDVPMETLSSEESCDSFDSLESGKQQDVRFHSKYFTEELRRIFIEDTDSETEDFAGFTQSDLNGKTNPEVMVVESDLSDDGKASLVSEEEEDEEEDKATPRRSRSRRSSIGLRVAFQFPTKKLANKPDKNSSSEQLFSSARLQNEKKTILERKKDCRQVIQREDSTSESEDDSRDESQESSDALLKRTMNIKENKAMLAQLLAELNSMPDFFPVRTPTSASRKKTVRRAFSEGQITRRMNPTRSARPPEKFALENFTVSAAKFAEEFYSFRRRKTIGGKCREYRRRHRISSFRPVEDITEEDLENVAITVRDKIYDKVLGNTCHQCRQKTIDTKTVCRNQGCCGVRGQFCGPCLRNRYGEDVRSALLDPDWVCPPCRGICNCSYCRKRDGRCATGILIHLAKFYGYDNVKEYLESLQKELVEDN", "partner": "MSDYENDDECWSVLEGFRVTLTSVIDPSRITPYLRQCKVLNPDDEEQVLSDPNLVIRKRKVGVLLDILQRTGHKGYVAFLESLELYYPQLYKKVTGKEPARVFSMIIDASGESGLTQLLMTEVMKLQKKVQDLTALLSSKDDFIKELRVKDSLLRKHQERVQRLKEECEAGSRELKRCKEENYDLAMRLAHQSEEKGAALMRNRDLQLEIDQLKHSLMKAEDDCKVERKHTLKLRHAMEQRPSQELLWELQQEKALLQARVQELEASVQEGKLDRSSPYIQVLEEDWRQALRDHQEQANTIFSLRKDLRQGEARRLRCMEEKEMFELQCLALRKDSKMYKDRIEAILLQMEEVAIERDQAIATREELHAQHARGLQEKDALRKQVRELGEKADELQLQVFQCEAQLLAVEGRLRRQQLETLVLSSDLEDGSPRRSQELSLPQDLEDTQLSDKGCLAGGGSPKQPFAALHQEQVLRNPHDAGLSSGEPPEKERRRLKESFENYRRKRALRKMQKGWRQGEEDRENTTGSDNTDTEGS"}, "B3": {"name": "Chorion-specific transcription factor GCMb (Homo sapiens), O75603 (parent)", "chain": "MPAAAVQEAVGVCSYGMQLSWDINDPQMPQELALFDQFREWPDGYVRFIYSSDEKKAQRHLSGWAMRNTNNHNGHILKKSCLGVVVCTQACTLPDGSRLQLRPAICDKARLKQQKKACPNCHSALELIPCRGHSGYPVTNFWRLDGNAIFFQAKGVHDHPRPESKSETEARRSAIKRQMASFYQPQKKRIRESEAEENQDSSGHFSNIPPLENPEDFDIVTETSFPIPGQPCPSFPKSDVYKATCDLATFQGDKMPPFQKYSSPRIYLPRPPCSYELANPGYTNSSPYPTLYKDSTSIPNDTDWVHLNTLQCNVNSYSSYERSFDFTNKQHGWKPALGKPSLVERTNHGQFQAMATRPYYNPELPCRYLTTPPPGAPALQTVITTTTKVSYQAYQPPAMKYSDSVREVKSLSSCNYAPEDTGMSVYPEPWGPPVTVTRAASPSGPPPMKIAGDCRAIRPTVAIPHEPVSSRTDEAETWDVCLSGLGSAVSYSDRVGPFFTYNNEDF"}, "B4": {"name": "Multifunctional procollagen lysine hydroxylase and glycosyltransferase LH3 (Homo sapiens), O60568 (parent)", "chain": "MTSSGPGPRFLLLLPLLLPPAASASDRPRGRDPVNPEKLLVITVATAETEGYLRFLRSAEFFNYTVRTLGLGEEWRGGDVARTVGGGQKVRWLKKEMEKYADREDMIIMFVDSYDVILAGSPTELLKKFVQSGSRLLFSAESFCWPEWGLAEQYPEVGTGKRFLNSGGFIGFATTIHQIVRQWKYKDDDDDQLFYTRLYLDPGLREKLSLNLDHKSRIFQNLNGALDEVVLKFDRNRVRIRNVAYDTLPIVVHGNGPTKLQLNYLGNYVPNGWTPEGGCGFCNQDRRTLPGGQPPPRVFLAVFVEQPTPFLPRFLQRLLLLDYPPDRVTLFLHNNEVFHEPHIADSWPQLQDHFSAVKLVGPEEALSPGEARDMAMDLCRQDPECEFYFSLDADAVLTNLQTLRILIEENRKVIAPMLSRHGKLWSNFWGALSPDEYYARSEDYVELVQRKRVGVWNVPYISQAYVIRGDTLRMELPQRDVFSGSDTDPDMAFCKSFRDKGIFLHLSNQHEFGRLLATSRYDTEHLHPDLWQIFDNPVDWKEQYIHENYSRALEGEGIVEQPCPDVYWFPLLSEQMCDELVAEMEHYGQWSGGRHEDSRLAGGYENVPTVDIHMKQVGYEDQWLQLLRTYVGPMTESLFPGYHTKARAVMNFVVRYRPDEQPSLRPHHDSSTFTLNVALNHKGLDYEGGGCRFLRYDCVISSPRKGWALLHPGRLTHYHEGLPTTWGTRYIMVSFVDP", "partner": "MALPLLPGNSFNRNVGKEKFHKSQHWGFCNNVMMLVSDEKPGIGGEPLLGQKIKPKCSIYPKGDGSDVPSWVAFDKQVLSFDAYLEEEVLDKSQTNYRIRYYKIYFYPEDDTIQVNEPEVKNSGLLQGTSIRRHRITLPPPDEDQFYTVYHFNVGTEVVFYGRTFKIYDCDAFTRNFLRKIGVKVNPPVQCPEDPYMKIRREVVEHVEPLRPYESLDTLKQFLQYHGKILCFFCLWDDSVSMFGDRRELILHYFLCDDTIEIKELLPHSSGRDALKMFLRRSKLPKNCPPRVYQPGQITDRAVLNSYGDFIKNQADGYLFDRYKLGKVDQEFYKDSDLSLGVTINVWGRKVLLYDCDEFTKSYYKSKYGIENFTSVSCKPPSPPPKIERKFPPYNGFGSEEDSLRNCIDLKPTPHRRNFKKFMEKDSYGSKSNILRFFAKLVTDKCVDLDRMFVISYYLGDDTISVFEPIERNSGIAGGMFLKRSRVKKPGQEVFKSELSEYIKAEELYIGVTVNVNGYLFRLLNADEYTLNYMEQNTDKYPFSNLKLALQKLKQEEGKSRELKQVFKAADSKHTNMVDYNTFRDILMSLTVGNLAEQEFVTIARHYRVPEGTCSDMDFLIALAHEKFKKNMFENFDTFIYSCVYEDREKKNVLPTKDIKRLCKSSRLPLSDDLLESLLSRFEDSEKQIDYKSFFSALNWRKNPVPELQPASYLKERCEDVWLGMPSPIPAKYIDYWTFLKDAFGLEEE"}, "B5": {"name": "Coiled-coil alpha-helical rod protein 1 (Homo sapiens), Q8TD31 (parent)", "chain": "MFPPSGSTGLIPPSHFQARPLSTLPRMAPTWLSDIPLVQPPGHQDVSERRLDTQRPQVTMWERDVSSDRQEPGRRGRSWGLEGSQALSQQAEVIVRQLQELRRLEEEVRLLRETSLQQKMRLEAQAMELEALARAEKAGRAEAEGLRAALAGAEVVRKNLEEGSQRELEEVQRLHQEQLSSLTQAHEEALSSLTSKAEGLEKSLSSLETRRAGEAKELAEAQREAELLRKQLSKTQEDLEAQVTLVENLRKYVGEQVPSEVHSQTWELERQKLLETMQHLQEDRDSLHATAELLQVRVQSLTHILALQEEELTRKVQPSDSLEPEFTRKCQSLLNRWREKVFALMVQLKAQELEHSDSVKQLKGQVASLQEKVTSQSQEQAILQRSLQDKAAEVEVERMGAKGLQLELSRAQEARRRWQQQTASAEEQLRLVVNAVSSSQIWLETTMAKVEGAAAQLPSLNNRLSYAVRKVHTIRGLIARKLALAQLRQESCPLPPPVTDVSLELQQLREERNRLDAELQLSARLIQQEVGRAREQGEAERQQLSKVAQQLEQELQQTQESLASLGLQLEVARQGQQESTEEAASLRQELTQQQELYGQALQEKVAEVETRLREQLSDTERRLNEARREHAKAVVSLRQIQRRAAQEKERSQELRRLQEEARKEEGQRLARRLQELERDKNLMLATLQQEGLLSRYKQQRLLTVLPSLLDKKKSVVSSPRPPECSASAPVAAAVPTRESIKGSLSVLLDDLQDLSEAISKEEAVCQGDNLDRCSSSNPQMSS", "partner": "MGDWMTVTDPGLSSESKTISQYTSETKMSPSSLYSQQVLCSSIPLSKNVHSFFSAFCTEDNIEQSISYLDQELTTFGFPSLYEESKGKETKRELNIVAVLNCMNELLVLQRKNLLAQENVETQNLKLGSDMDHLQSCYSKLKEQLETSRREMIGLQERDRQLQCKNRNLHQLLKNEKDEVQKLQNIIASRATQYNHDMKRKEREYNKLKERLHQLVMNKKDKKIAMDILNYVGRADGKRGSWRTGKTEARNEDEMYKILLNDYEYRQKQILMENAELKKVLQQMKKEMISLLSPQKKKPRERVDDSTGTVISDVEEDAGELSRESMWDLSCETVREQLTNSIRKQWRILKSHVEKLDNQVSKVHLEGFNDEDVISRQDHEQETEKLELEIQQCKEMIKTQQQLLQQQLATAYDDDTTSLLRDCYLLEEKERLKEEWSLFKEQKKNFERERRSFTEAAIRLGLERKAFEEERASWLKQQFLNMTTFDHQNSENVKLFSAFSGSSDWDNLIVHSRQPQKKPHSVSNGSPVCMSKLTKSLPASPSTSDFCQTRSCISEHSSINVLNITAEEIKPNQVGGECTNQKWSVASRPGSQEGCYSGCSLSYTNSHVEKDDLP"}}}
{"variants_of": "B1", "settings": "with vps52_human VPS52, Q8N1B4"}
{"variant": "A349T", "effect of a mutation on the interaction": "disrupting interaction strength"}
{"variants_of": "B2", "settings": "with card9_human CARD9, Q9H257"}
{"variant": "R268H", "effect of a mutation on the interaction": "with no effect"}
{"variants_of": "B3", "settings": "with crx_human CRX"}
{"variant": "G349E", "effect of a mutation on the interaction": "with no effect"}
{"variants_of": "B3", "settings": "with rbpms_human RBPMS"}
{"variant": "G349E", "effect of a mutation on the interaction": "with no effect"}
{"variants_of": "B4", "settings": "with efhc2_human EFHC2, Q5JST6"}
{"variant": "R235Q", "effect of a mutation on the interaction": "with no effect"}
{"variants_of": "B5", "settings": "with adip_human SSX2IP"}
{"variant": "W337R", "effect of a mutation on the interaction": "disrupting interaction strength"}
